Data reported in patent US20060205646.

Assays:
[1] = system: T1, p26 protein from Artemia franciscana
T1 sequence: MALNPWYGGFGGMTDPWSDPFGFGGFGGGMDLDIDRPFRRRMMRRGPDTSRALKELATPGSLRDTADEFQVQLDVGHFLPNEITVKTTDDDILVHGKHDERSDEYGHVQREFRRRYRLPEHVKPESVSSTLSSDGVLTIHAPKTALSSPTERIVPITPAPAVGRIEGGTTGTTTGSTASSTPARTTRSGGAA

bovine serum albumin = bovine serum albumin (UniProt P02769)
Chain of bovine serum albumin (P02769 25-607): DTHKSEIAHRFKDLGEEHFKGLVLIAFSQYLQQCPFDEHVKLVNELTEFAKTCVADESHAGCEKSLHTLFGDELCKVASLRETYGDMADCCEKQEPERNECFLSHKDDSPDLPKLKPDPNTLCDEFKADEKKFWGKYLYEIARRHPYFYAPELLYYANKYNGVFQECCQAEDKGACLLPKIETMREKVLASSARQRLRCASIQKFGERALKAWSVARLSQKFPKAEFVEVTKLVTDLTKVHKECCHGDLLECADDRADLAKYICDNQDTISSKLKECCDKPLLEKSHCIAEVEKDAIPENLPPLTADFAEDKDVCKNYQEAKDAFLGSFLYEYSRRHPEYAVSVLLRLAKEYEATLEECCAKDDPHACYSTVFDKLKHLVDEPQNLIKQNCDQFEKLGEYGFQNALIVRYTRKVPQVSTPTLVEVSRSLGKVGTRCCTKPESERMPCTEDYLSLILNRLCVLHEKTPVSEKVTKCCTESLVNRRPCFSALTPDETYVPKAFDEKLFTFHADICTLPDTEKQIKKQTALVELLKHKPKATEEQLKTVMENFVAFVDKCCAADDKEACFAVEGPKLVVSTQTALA

Chain of activated recombinant MMP9 (chain, as listed by the source): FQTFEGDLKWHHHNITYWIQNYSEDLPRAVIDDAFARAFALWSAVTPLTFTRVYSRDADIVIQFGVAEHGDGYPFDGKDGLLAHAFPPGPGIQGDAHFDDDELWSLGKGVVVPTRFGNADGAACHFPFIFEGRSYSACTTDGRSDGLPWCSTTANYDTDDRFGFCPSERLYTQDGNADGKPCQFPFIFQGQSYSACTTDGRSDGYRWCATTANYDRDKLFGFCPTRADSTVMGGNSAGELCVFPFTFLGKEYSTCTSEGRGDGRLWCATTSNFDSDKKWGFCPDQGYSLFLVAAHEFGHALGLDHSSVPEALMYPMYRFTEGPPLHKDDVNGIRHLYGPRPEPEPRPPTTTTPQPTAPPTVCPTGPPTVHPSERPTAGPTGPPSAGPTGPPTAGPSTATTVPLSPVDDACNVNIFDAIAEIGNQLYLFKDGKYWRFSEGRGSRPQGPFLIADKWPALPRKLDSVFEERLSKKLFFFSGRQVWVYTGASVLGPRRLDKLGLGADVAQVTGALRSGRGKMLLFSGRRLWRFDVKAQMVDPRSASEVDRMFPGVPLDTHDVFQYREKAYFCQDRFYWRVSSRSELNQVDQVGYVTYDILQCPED
Chain of Heat gamma (chain, as listed by the source): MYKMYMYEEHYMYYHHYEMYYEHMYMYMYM

Substance | cleavage of pET-28a by Nde I after 1 hour pretreatment at 40° C. (agarose gel) [1] | cleavage of pET-28a by Nde I after 1 hour pretreatment at 40° C. (agarose gel) (bovine serum albumin) | cleavage of Fluorogenic Peptide substrate I by 0.270 µg activated recombinant MMP9, 60 µg Heat Gamma (Heat gamma)
Nde I restriction endonuclease | In the presence of 5 µg of p26 protein, Nde I remained fully active, and completely cleaved pET-28a | An equivalent amount of BSA (5 µg) did not protect the enzyme any better than the buffer control | 
activated recombinant MMP9 |  |  | Heat gamma efficiently inhibits the MMP9 activity as indicated by a decrease in relative fluorescence
